According to article PMC5816949, “Highly Sensitive Colorimetric Biosensor for Staphylococcal Enterotoxin B by a Label-Free Aptamer and Gold Nanoparticles”:
Like-named read-outs stand apart in the source and are kept apart here.

B1: SEB2 aptamer (ssDNA)
DNA: TAGCTCACTCATTAGGCACGGGTAGGCCATAATATCTTATTAGCGTAATTCTGCGATTGGCATAGTTAAGCCAGCC

Tests used:
[1] = target: Staphylococcal enterotoxin B (SEB, r-SEB) (Staphylococcus aureus, UniProt P01552 28-266); assay: AuNP colorimetric aggregation assay; 240 nM random DNA; conditions: protein: recombinant; label: none
[2] = target: Staphylococcal enterotoxin B (SEB, r-SEB) (Staphylococcus aureus, UniProt P01552 28-266)

Row | Binder | binding result [1] | binding result [2]
1 | CGTAGTCTAGTGTCGATTAGTTTCCTTGAGACCTTGTGCT (ssDNA) [random ssDNA (RDNA)] | no binding | –
2 | B1 | – | binds
